Assay results as given in the RNAGym collection of RNA variant scans (doi:10.1073/pnas.2313332121).
Fewer inactive variants are shown than the library holds.

B1: TPR 5TU (parent)
chain: GGAUCUUCUCGAUCUAACAAAAAAGACAAAUCUGCCACAAAGCUUGAGAGCAUCUUCGGAUGCAGAGGCGGCAGCCUUCGGUGGCGCGAUAGCGCCAACGUUCUCAACUAUGACACGCAAAACGCGUGCUCCGUUGAAUGGAGUUUAUCAUG

Variants of: B1
Assay: polymerase ribozyme fitness, log enrichment relative to wild type (log ratio); higher = more active; in vitro selection for triplet polymerase activity
How it was run: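 To select mutant libraries of each subunit of a heterodimeric triplet polymerase ribozyme, built by PCR and transcribed, each was annealed with a biotinylated primer, partner subunit and triplets, then incubated frozen at −7 °C. Extended constructs were gel-excised, captured on streptavidin beads and amplified by RT-PCR, in one round carried out in triplicate. Illumina sequencing of input and output libraries kept genotypes with ≥10 input reads and ≥1 read per output. Fitness is the base-2 logarithm of genotype enrichment relative to wild-type enrichment, from inverse-variance-weighted replicate averages.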

| Variant | polymerase ribozyme fitness (log ratio) |
| --- | --- |
| GGAUCUUCUCGAUCUAACAAAUGAGACAAAUCUGCCACAAAGCUUGAGACCAUCUUCGGAUGCAGAGGCGGCACCCUUCGGUGGCGCGAUAGCGCCAACGUUCUCAACUAUGACACGCAAAACGCGUGCUCCGUUGAAUGGAGUUUAUCAUG | ≤ -4.2 |
| GGAUCUUCUCGAUCUAACAAAUAAGACAGAUCUGCCACAAAGCUUGAGAGCAUCUUCGGAUGCAGAGGCGGCAGCCUUCGGUGGCGCGAUAGCGCCAACGUUCUCAACUAUGACACGCAAAACGCGUGCUCCGUUGAAUGGAGUUUAUCGUG | ≤ -4.2 |
| GGAUCUUCUCGAUCUAACAAAUAAGACUAAUCUGCCACAAAGCUGGAGAUCAUCUUCGGAUGCAGAGGCGGCAGCCUUCGGUGGCGCGAUAGCGCCAACGUUGUCAACUAUGACACGCAAAACGCGUGCUCCGUUGAAUGGAGUUUAUCAUG | ≤ -4.2 |
| GGAUCUUCUCGAUCUAACAAAUAAGACAGAUCUGCCACAAAGCUUGAGAGCAUCUUCGGAUGCAGAGGCAGCAGCCUUCGGUGGCGCGAUAGCGCCAACGUUCUCAACUAUGACACGCAAAACGCGUGCUCCGUUGAAUGGAGUUUAUCAUG | ≤ -4.2 |
| GGAUCUUCUCGAUCUAACAAAUGAGACAAAUCUGCCACAAAGCUUGAGAACAUCUUCGGAUGCAGAGGCGGCAGCCUUCGGUGGCACGAUAGCGCCAACGUUCUCAACUAUGACAGGCAAAACGCGUGCGGCGUUGAAUGGAGUUUAUCAUG | ≤ -4.2 |
| GGAUCUUCUCGAUCUAACAAAUAAGACAAGUCUGCCACAAAGCUUCAGACCCUCGUCGGAUGCAGAGGCGGUAGCCUUCGGAGGCGACAAAGCGCCAAUGUUCUCAACUAUGACACGCAAAACGCGUGCUCCGUUGAAUGGAGUUUAUCAUG | ≤ -4.2 |
| GGAUCUUCUCGAUCUAACAAAUAAGACGAAUCUGCCACAAAGCUUGAGAGCAUCUUCGGAUGCAGAGGCGGCAGCCUUCCGUGGCGCGAUAGCGCCAAUGUUCUCAAAUAUGACACGCAAAACGCGUGCUCCGUUGAAUCGAGUUUAUCAUG | ≤ -4.2 |
| GGAUCUUCUCGAUCUAACAAAUAAGACAAAUCUGCCCCAAAGCUUGAGAGCAUCUUCGGAUGCAGAGGCGGCAGCCUUCGGUCGCGCGAUAGCGCCAACGUUCUCAACUAUGAGACGCAAAACGCGUGCUCCGUUGAAUGGAGUUUAUCAUG | -3.92 |
| GGAUCUUCUCGAUCUAACAAAUAAGGCCAAUCUGCCUCAAAGCUUGAGAGCAUCUACGGAUGCAGAGGCGGCAGCCUUCGGUGGCGCGAUAGCGCUAUCGUUCUCAACUAUGACACGCAAAACGCGUGCUCCGUUGAAUGGAGUUUAUCAUG | ≤ -4.2 |
| GGAUCUUCUCGAUCUAACAAAUAAGACAAGUCUGCCACAAAGCUUCAGACCCUCGUCGGAUGCAGAGGCGGCAGCCUUCGGUAGCGCGAUAGCACCAACGUUCUCAACUAUGACACGCAAAACGCGUGCUCCGUUGAAUGGAGUUUAUCAUG | ≤ -4.2 |
| GGAUCUUCUCGAUCUAACAAAUAUGACAAAUCUGCCACAAAGCUUGAGAGCAUCUUCCGAUGCAGAGGCGGCAGCCUUCGGUGGCGCGUUAGCGCCAACGUUCUCAACUAUGACACGCAAAACGCGUGCUCCGUUGAAUGGACUUUAUCAUG | -2.7 |
| GGAUCUUCUCGAUCUAACAAAUAAGACUAAUCUGCCACAAAGCUUGAGAGCAUCUUUGGAUGCAGAGGCGGCAGCCGUCGGUGGGGCGAUAUCGCCAACGUUCUCAACUAUGACACGCAAAACGCGUGCUCCGUUGAAUGGAGUUUAUCAUG | ≤ -4.2 |
| GGAUCUUCUCGAUCUAACAAAUAAGACAACUCUGCCACAAAGCUUGAGAGCAUCUUCGGAUGCAGAGGCGGCAGCCUUCGAUGGCGCGAUAGCGCCAACGUUCUCAACUAUGACAGGCAAAACGCGUGCUCCGUUGAAUGGAGUUUAUCAUG | -3.8 |
| GGAUCUUCUCGAUCUAACAAAGAAGACAAAUCUGCCACAAAGCUUGAGAGCAUCUUCGGAUGCAGAGGCGGCAGCCUUCGGUGGCGCGAUAGCGCCAACGUUCUCAACUAUGACACGCAAAACGCGUGCACCGUUGAAUGGAGUUUAUCAUG | -1.59 |
| GGAUCUUCUCGAUCUAACAAAUAAGACGAAUCUGCCACAAAGCUUGAGAGCAUCUUCGGAUGCAGAGGCGGCAGCCUUCGGUGGCGCGAUAGCGCCAACGUUCUCAACUAUGACACGCAAAACGCGUGCUCCGUUGAAUGGAGUUUAUCAUG | -3.35 |
| GGAUCUUCUCGAUCUAACAAAUAAGGCAAAUCUGCCACAAAGCUUGAGUGCAUCUUCGGAUGCAGAGGCGGCAGCCUUCGGUGGCGCGAUAGCGCCAACGUCCUCAACUAUGACACGCAAAACGCGUGCUCCGUUGAGUGGAGAUUAUCAUG | ≤ -4.2 |
| GGAUCUUCUCGAUCUAACAAAUAAGCCAAAUCUGCCACAAAGCUUGAGAGCAUCUUCGGAUCCAGAGGCGGCAGCCUUCGGUGGCGAGAUAGCGCCAACGUUCUCAACUAUGACAGGCAAAACGCGUGCUCCGUUGAAUGGAGUUUUUCAUG | ≤ -4.2 |
| GGAUCUUCUCGAUCUAACAAAUAAGCCAAAUCUGCCACAAAGCUAGAUAGCAUCUUCGGAUGCAGAGGCGGCAGCCUUCGGGGGCGGGAUAGCGCCAACGUUCUCAACUAUGACACGCAAAACGCGUGGUCCGUUGAAUGGAGUUUAUCAUG | ≤ -4.2 |
| GGAUCUUCUCGAUCUAACAAAUAAGACAAUUAUGCCACAAAGCUUGAGAGCAUCUUCGGAUGCAGAGGCGGCAGCCUGCGGUGGCGCAAUAGCGCCAACGUUCUCAACUAUGACACUCAAAACGCGUGCUCCGUUGAAGGGAGUUUAUCAUG | ≤ -4.2 |
